Experiments:
[1] = biological target: human CST (CTC1–STN1–TEN1) heterotrimer, recombinant, from HEK293T cells (human) (UniProt Q2NKJ3)
[2] = biological target: human CST (CTC1–STN1–TEN1) heterotrimer, recombinant, from HEK293T cells (human) (UniProt Q2NKJ3); assay: co-IP; successive anti-FLAG and anti-HA immunopurifications of 3×FLAG-CTC1, Myc-STN1 and HA-TEN1 from transfected HEK293T cells, 150 mM NaCl in the wash and elution buffers; subunits found by western blot and quantified against insect-cell standards

Sequence of human CST (CTC1–STN1–TEN1) heterotrimer, recombinant, from HEK293T cells (human) (Q2NKJ3 whole entry, chain 1 of 3): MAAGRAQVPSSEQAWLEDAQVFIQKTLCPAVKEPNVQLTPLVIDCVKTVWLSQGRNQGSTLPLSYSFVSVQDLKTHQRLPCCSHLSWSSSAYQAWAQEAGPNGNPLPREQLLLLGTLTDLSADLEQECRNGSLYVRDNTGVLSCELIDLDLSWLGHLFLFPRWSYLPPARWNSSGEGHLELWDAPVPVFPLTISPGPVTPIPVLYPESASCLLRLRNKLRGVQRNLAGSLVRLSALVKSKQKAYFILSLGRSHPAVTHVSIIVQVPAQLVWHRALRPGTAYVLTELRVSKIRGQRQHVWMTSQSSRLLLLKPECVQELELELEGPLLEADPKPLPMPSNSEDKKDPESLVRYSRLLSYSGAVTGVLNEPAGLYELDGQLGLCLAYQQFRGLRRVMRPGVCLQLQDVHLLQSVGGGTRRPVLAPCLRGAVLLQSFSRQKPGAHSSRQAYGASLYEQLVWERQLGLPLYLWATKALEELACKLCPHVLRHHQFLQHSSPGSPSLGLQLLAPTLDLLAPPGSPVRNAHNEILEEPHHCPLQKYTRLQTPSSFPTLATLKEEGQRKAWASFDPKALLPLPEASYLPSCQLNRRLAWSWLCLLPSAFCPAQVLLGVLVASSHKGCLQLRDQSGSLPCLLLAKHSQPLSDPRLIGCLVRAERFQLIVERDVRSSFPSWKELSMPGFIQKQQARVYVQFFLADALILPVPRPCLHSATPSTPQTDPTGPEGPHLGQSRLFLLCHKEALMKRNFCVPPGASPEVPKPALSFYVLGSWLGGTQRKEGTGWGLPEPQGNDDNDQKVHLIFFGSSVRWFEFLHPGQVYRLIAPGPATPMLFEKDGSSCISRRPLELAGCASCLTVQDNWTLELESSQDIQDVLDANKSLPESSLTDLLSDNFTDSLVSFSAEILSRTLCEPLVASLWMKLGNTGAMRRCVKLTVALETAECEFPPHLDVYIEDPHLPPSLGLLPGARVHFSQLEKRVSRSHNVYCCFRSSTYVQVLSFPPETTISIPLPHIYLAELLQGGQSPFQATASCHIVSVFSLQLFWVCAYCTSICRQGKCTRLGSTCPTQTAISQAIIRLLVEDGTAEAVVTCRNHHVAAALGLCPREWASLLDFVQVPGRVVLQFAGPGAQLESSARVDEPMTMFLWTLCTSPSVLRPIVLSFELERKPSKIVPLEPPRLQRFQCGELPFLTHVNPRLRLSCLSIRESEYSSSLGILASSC
Sequence of human CST (CTC1–STN1–TEN1) heterotrimer, recombinant, from HEK293T cells (human) (Q9H668 whole entry, chain 2 of 3, further chain): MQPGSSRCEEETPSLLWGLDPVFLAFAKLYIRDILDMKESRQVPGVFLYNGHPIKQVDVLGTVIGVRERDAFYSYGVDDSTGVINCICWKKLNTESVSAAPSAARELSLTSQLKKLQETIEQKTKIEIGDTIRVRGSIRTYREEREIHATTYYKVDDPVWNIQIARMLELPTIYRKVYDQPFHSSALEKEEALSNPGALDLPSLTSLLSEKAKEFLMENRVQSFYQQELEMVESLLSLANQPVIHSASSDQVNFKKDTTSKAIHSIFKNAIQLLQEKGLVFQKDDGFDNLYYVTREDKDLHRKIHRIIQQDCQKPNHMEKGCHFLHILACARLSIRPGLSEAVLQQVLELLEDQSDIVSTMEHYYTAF
Sequence of human CST (CTC1–STN1–TEN1) heterotrimer, recombinant, from HEK293T cells (human) (Q86WV5 whole entry, chain 3 of 3, further chain): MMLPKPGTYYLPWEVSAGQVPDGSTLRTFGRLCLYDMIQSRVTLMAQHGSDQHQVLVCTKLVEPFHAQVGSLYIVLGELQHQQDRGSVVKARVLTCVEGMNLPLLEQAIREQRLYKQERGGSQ
Sequence of Polα–primase (DNA polymerase α-primase), endogenous human enzyme, four subunits (Q14181 whole entry, looked up, tested part not stated): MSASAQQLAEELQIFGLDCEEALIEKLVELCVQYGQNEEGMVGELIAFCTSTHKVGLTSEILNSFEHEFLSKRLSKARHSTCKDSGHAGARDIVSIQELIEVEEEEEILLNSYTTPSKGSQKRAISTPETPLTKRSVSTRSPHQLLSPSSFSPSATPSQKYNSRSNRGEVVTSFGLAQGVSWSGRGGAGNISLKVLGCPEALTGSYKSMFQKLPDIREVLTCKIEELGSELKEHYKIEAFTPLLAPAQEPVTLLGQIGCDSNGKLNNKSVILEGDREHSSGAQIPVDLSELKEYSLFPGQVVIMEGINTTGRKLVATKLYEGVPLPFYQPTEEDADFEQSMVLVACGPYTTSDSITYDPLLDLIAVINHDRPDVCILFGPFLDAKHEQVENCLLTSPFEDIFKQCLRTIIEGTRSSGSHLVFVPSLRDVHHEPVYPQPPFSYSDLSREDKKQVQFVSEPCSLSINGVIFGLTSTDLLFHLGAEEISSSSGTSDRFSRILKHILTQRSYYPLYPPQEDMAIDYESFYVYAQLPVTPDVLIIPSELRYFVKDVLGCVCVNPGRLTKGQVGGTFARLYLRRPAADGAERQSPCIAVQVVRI
Sequence of Polα–primase (DNA polymerase α-primase), endogenous human enzyme, four subunits (P09884 whole entry, looked up, tested part not stated): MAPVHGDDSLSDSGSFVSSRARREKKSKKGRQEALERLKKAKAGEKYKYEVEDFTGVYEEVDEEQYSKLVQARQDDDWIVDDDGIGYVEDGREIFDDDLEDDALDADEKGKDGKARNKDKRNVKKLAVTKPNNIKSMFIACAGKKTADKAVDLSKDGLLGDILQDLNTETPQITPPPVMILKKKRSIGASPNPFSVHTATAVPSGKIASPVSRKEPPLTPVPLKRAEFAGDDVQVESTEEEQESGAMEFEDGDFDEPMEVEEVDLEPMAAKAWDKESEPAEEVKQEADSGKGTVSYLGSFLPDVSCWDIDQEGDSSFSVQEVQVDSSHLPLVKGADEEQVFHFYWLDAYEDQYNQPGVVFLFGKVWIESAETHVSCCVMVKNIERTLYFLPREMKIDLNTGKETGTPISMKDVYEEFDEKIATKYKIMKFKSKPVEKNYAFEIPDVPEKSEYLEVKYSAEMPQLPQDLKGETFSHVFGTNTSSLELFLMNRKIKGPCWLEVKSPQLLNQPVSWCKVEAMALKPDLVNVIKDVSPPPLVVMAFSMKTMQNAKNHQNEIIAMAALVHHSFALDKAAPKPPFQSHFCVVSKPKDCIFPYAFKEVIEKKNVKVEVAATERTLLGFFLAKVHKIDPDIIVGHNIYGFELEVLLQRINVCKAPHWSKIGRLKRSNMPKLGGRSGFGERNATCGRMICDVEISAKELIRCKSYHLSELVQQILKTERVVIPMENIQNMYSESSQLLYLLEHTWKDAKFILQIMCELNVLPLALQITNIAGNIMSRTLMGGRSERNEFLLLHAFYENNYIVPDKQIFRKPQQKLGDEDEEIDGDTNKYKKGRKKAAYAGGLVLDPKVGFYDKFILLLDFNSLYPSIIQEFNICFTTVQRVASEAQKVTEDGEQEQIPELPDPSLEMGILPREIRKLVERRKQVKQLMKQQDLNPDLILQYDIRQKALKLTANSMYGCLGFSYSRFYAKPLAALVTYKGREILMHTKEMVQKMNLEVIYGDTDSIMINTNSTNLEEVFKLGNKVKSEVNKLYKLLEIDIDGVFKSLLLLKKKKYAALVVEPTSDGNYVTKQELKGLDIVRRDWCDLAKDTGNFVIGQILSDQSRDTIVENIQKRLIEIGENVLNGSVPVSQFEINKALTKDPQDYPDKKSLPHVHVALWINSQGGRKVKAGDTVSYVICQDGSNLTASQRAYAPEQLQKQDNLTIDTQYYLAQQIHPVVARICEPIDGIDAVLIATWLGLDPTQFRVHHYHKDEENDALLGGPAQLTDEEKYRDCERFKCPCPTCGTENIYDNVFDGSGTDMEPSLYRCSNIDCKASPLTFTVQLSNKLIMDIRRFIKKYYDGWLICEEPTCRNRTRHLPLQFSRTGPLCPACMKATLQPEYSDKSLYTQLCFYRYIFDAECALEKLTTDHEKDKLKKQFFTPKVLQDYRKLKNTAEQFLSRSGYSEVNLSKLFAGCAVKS

Substance: Polα–primase (DNA polymerase α-primase), endogenous human enzyme, four subunits (from UniProt P09884 1-1462; Q14181 1-598) (complex)
- C-strand synthesis activity of CST–Polα–primase from HEK cells relative to recombinant human Polα–primase from insect cells, high concentrations of enzyme and template DNA (5 µM, 15×TEL) [1]: > 10 fold
- C-strand synthesis activity of CST–Polα–primase from HEK cells relative to recombinant human Polα–primase from insect cells, standard reaction conditions (100 nM template) [1]: > 10000 fold
- stoichiometry in the purified preparation (POLA per CST) [2]: 0.21 POLA per CST

Reference: publication PMC9402439
